Numbered stars: 1 amine (or outer) side, 2 acyl side, 3 side chain; on linkers, the order of the positions; unused ones are H or OH. Bridge positions count the residues as written; N and C are the ends. Side chains are listed from the residue outwards. Ends that are not written are not given here. * marks the point of attachment. C20 diacid = O=C(O)CCCCCCCCCCCCCCCCCCC(=O)*; γGlu = O=C(O)[C@H](CCC(=O)[*:2])N[*:1]; AEEA = NCCOCCOCC(=O)O
T1: human calcitonin receptor (human, UniProt P30988 25-474)
T1 sequence (looked up): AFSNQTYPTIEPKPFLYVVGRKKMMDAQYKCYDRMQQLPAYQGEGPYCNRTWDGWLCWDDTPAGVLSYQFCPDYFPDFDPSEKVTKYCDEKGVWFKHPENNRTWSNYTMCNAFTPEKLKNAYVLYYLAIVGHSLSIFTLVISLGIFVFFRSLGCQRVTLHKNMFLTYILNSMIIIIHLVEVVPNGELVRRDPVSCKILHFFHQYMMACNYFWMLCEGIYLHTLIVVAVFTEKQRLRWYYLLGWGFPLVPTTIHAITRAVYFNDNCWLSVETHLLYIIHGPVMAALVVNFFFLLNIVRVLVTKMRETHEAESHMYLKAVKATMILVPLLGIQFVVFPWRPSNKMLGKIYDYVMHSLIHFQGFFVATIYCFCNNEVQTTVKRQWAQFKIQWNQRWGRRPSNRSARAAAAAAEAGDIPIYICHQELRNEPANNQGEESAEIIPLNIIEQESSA


Molecular target: T1, human calcitonin receptor
Assay: cell-based or functional assay

hCTR funct. EC50 [nM] | Ratio hCT/hAmylin funct. | Binder
4.75 |  | K([γGlu-C20 diacid])RCNTATCATQRLANFLRHSSPNFGAIPSSTNVGSHTY-NH2 (disulfide 3-8; N-terminus assumed; SMILES CC[C@H](C)[C@H](NC(=O)[C@H](C)NC(=O)CNC(=O)[C@H](Cc1ccccc1)NC(=O)[C@H](CC(N)=O)NC(=O)[C@@H]1CCCN1C(=O)[C@H](CO)NC(=O)[C@H](CO)NC(=O)[C@H](Cc1c[nH]cn1)NC(=O)[C@H](CCCNC(=N)N)NC(=O)[C@H](CC(C)C)NC(=O)[C@H](Cc1ccccc1)NC(=O)[C@H](CC(N)=O)NC(=O)[C@H](C)NC(=O)[C@H](CC(C)C)NC(=O)[C@H](CCCNC(=N)N)NC(=O)[C@H](CCC(N)=O)NC(=O)[C@@H](NC(=O)[C@H](C)NC(=O)[C@@H]1CSSC[C@H](NC(=O)[C@H](CCCNC(=N)N)NC(=O)[C@@H](N)CCCCNC(=O)CC[C@H](NC(=O)CCCCCCCCCCCCCCCCCCC(=O)O)C(=O)O)C(=O)N[C@@H](CC(N)=O)C(=O)N[C@@H]([C@@H](C)O)C(=O)N[C@@H](C)C(=O)N[C@@H]([C@@H](C)O)C(=O)N1)[C@@H](C)O)C(=O)N1CCC[C@H]1C(=O)N[C@@H](CO)C(=O)N[C@@H](CO)C(=O)N[C@H](C(=O)N[C@@H](CC(N)=O)C(=O)N[C@H](C(=O)NCC(=O)N[C@@H](CO)C(=O)N[C@@H](Cc1c[nH]cn1)C(=O)N[C@H](C(=O)N[C@@H](Cc1ccc(O)cc1)C(N)=O)[C@@H](C)O)C(C)C)[C@@H](C)O, analogue of human amylin, extended by Lys at the N-terminus; also called compound 44)
4.35 |  | K([AEEA-γGlu-C20 diacid])CNTATCATQRLANFLRHSSPNFGAIPSSTNVGSNTY-NH2 (disulfide 2-7; N-terminus assumed; SMILES CC[C@H](C)[C@H](NC(=O)[C@H](C)NC(=O)CNC(=O)[C@H](Cc1ccccc1)NC(=O)[C@H](CC(N)=O)NC(=O)[C@@H]1CCCN1C(=O)[C@H](CO)NC(=O)[C@H](CO)NC(=O)[C@H](Cc1c[nH]cn1)NC(=O)[C@H](CCCNC(=N)N)NC(=O)[C@H](CC(C)C)NC(=O)[C@H](Cc1ccccc1)NC(=O)[C@H](CC(N)=O)NC(=O)[C@H](C)NC(=O)[C@H](CC(C)C)NC(=O)[C@H](CCCNC(=N)N)NC(=O)[C@H](CCC(N)=O)NC(=O)[C@@H](NC(=O)[C@H](C)NC(=O)[C@@H]1CSSC[C@H](NC(=O)[C@@H](N)CCCCNC(=O)COCCOCCNC(=O)CC[C@H](NC(=O)CCCCCCCCCCCCCCCCCCC(=O)O)C(=O)O)C(=O)N[C@@H](CC(N)=O)C(=O)N[C@@H]([C@@H](C)O)C(=O)N[C@@H](C)C(=O)N[C@@H]([C@@H](C)O)C(=O)N1)[C@@H](C)O)C(=O)N1CCC[C@H]1C(=O)N[C@@H](CO)C(=O)N[C@@H](CO)C(=O)N[C@H](C(=O)N[C@@H](CC(N)=O)C(=O)N[C@H](C(=O)NCC(=O)N[C@@H](CO)C(=O)N[C@@H](CC(N)=O)C(=O)N[C@H](C(=O)N[C@@H](Cc1ccc(O)cc1)C(N)=O)[C@@H](C)O)C(C)C)[C@@H](C)O, analogue of human amylin; also called compound 41)
0.715 |  | K([γGlu-C20 diacid])CNTATCATQRLAHFLRHSSPNFGAIPSSTNVGSNTY-NH2 (disulfide 2-7; N-terminus assumed; SMILES CC[C@H](C)[C@H](NC(=O)[C@H](C)NC(=O)CNC(=O)[C@H](Cc1ccccc1)NC(=O)[C@H](CC(N)=O)NC(=O)[C@@H]1CCCN1C(=O)[C@H](CO)NC(=O)[C@H](CO)NC(=O)[C@H](Cc1c[nH]cn1)NC(=O)[C@H](CCCNC(=N)N)NC(=O)[C@H](CC(C)C)NC(=O)[C@H](Cc1ccccc1)NC(=O)[C@H](Cc1c[nH]cn1)NC(=O)[C@H](C)NC(=O)[C@H](CC(C)C)NC(=O)[C@H](CCCNC(=N)N)NC(=O)[C@H](CCC(N)=O)NC(=O)[C@@H](NC(=O)[C@H](C)NC(=O)[C@@H]1CSSC[C@H](NC(=O)[C@@H](N)CCCCNC(=O)CC[C@H](NC(=O)CCCCCCCCCCCCCCCCCCC(=O)O)C(=O)O)C(=O)N[C@@H](CC(N)=O)C(=O)N[C@@H]([C@@H](C)O)C(=O)N[C@@H](C)C(=O)N[C@@H]([C@@H](C)O)C(=O)N1)[C@@H](C)O)C(=O)N1CCC[C@H]1C(=O)N[C@@H](CO)C(=O)N[C@@H](CO)C(=O)N[C@H](C(=O)N[C@@H](CC(N)=O)C(=O)N[C@H](C(=O)NCC(=O)N[C@@H](CO)C(=O)N[C@@H](CC(N)=O)C(=O)N[C@H](C(=O)N[C@@H](Cc1ccc(O)cc1)C(N)=O)[C@@H](C)O)C(C)C)[C@@H](C)O, analogue of human amylin; also called compound 70) [N^ε1-[(4S)-4-carboxy-4-(19-carboxynonadecanoylamino)butanoyl]-[His14,Arg17,Pro21,Pro27]-h-amylin]
3 |  | K([γGlu-γGlu-C20 diacid])CNTATCATQRLADFLRHSSPNFGAIPSSTNVGSDTY-NH2 (disulfide 2-7; N-terminus assumed; SMILES CC[C@H](C)[C@H](NC(=O)[C@H](C)NC(=O)CNC(=O)[C@H](Cc1ccccc1)NC(=O)[C@H](CC(N)=O)NC(=O)[C@@H]1CCCN1C(=O)[C@H](CO)NC(=O)[C@H](CO)NC(=O)[C@H](Cc1c[nH]cn1)NC(=O)[C@H](CCCNC(=N)N)NC(=O)[C@H](CC(C)C)NC(=O)[C@H](Cc1ccccc1)NC(=O)[C@H](CC(=O)O)NC(=O)[C@H](C)NC(=O)[C@H](CC(C)C)NC(=O)[C@H](CCCNC(=N)N)NC(=O)[C@H](CCC(N)=O)NC(=O)[C@@H](NC(=O)[C@H](C)NC(=O)[C@@H]1CSSC[C@H](NC(=O)[C@@H](N)CCCCNC(=O)CC[C@H](NC(=O)CC[C@H](NC(=O)CCCCCCCCCCCCCCCCCCC(=O)O)C(=O)O)C(=O)O)C(=O)N[C@@H](CC(N)=O)C(=O)N[C@@H]([C@@H](C)O)C(=O)N[C@@H](C)C(=O)N[C@@H]([C@@H](C)O)C(=O)N1)[C@@H](C)O)C(=O)N1CCC[C@H]1C(=O)N[C@@H](CO)C(=O)N[C@@H](CO)C(=O)N[C@H](C(=O)N[C@@H](CC(N)=O)C(=O)N[C@H](C(=O)NCC(=O)N[C@@H](CO)C(=O)N[C@@H](CC(=O)O)C(=O)N[C@H](C(=O)N[C@@H](Cc1ccc(O)cc1)C(N)=O)[C@@H](C)O)C(C)C)[C@@H](C)O, analogue of human amylin; also called compound 2)
2.7 | 12 | K([γGlu-γGlu-C20 diacid])CNTATCATQRLADFLRHSSPNFGAPLSSTNVGSDTY-NH2 (disulfide 2-7; N-terminus assumed; SMILES CC(C)C[C@H](NC(=O)[C@H](CCCNC(=N)N)NC(=O)[C@H](CCC(N)=O)NC(=O)[C@@H](NC(=O)[C@H](C)NC(=O)[C@@H]1CSSC[C@H](NC(=O)[C@@H](N)CCCCNC(=O)CC[C@H](NC(=O)CC[C@H](NC(=O)CCCCCCCCCCCCCCCCCCC(=O)O)C(=O)O)C(=O)O)C(=O)N[C@@H](CC(N)=O)C(=O)N[C@@H]([C@@H](C)O)C(=O)N[C@@H](C)C(=O)N[C@@H]([C@@H](C)O)C(=O)N1)[C@@H](C)O)C(=O)N[C@@H](C)C(=O)N[C@@H](CC(=O)O)C(=O)N[C@@H](Cc1ccccc1)C(=O)N[C@@H](CC(C)C)C(=O)N[C@@H](CCCNC(=N)N)C(=O)N[C@@H](Cc1c[nH]cn1)C(=O)N[C@@H](CO)C(=O)N[C@@H](CO)C(=O)N1CCC[C@H]1C(=O)N[C@@H](CC(N)=O)C(=O)N[C@@H](Cc1ccccc1)C(=O)NCC(=O)N[C@@H](C)C(=O)N1CCC[C@H]1C(=O)N[C@@H](CC(C)C)C(=O)N[C@@H](CO)C(=O)N[C@@H](CO)C(=O)N[C@H](C(=O)N[C@@H](CC(N)=O)C(=O)N[C@H](C(=O)NCC(=O)N[C@@H](CO)C(=O)N[C@@H](CC(=O)O)C(=O)N[C@H](C(=O)N[C@@H](Cc1ccc(O)cc1)C(N)=O)[C@@H](C)O)C(C)C)[C@@H](C)O, analogue of human amylin; also called compound 1)
14.1 |  | K([γGlu-γGlu-C20 diacid])CNTATCATQRLADFLRHSSPNFGAIPSSTNVGSRTY-NH2 (disulfide 2-7; N-terminus assumed; SMILES CC[C@H](C)[C@H](NC(=O)[C@H](C)NC(=O)CNC(=O)[C@H](Cc1ccccc1)NC(=O)[C@H](CC(N)=O)NC(=O)[C@@H]1CCCN1C(=O)[C@H](CO)NC(=O)[C@H](CO)NC(=O)[C@H](Cc1c[nH]cn1)NC(=O)[C@H](CCCNC(=N)N)NC(=O)[C@H](CC(C)C)NC(=O)[C@H](Cc1ccccc1)NC(=O)[C@H](CC(=O)O)NC(=O)[C@H](C)NC(=O)[C@H](CC(C)C)NC(=O)[C@H](CCCNC(=N)N)NC(=O)[C@H](CCC(N)=O)NC(=O)[C@@H](NC(=O)[C@H](C)NC(=O)[C@@H]1CSSC[C@H](NC(=O)[C@@H](N)CCCCNC(=O)CC[C@H](NC(=O)CC[C@H](NC(=O)CCCCCCCCCCCCCCCCCCC(=O)O)C(=O)O)C(=O)O)C(=O)N[C@@H](CC(N)=O)C(=O)N[C@@H]([C@@H](C)O)C(=O)N[C@@H](C)C(=O)N[C@@H]([C@@H](C)O)C(=O)N1)[C@@H](C)O)C(=O)N1CCC[C@H]1C(=O)N[C@@H](CO)C(=O)N[C@@H](CO)C(=O)N[C@H](C(=O)N[C@@H](CC(N)=O)C(=O)N[C@H](C(=O)NCC(=O)N[C@@H](CO)C(=O)N[C@@H](CCCNC(=N)N)C(=O)N[C@H](C(=O)N[C@@H](Cc1ccc(O)cc1)C(N)=O)[C@@H](C)O)C(C)C)[C@@H](C)O, analogue of human amylin; also called compound 52)
